{"source": "paper PMC12669751", "about": "“Immunodominant antibodies against hemagglutinin in ferrets following infection with 2018 to 2019 influenza vaccine strains” (NPJ Vaccines, 2025)", "biological_target": "TX/50 cell-version rHA1 (A/Texas/50/2012(H3N2) HA1) (Influenza A virus …, UniProt R4L1D1, strain)", "assay": "BLI", "settings": "one partner purified"}
{"binder": "monoclonal antibody FluA-20 (antibody, V domains shown, also called FluA-20 mAb; pan-H3 anti-HA1 mAb; copies: 2 + 2) VH: QVQLEESGPGLVKPSETLSLTCSVSGVSVTSDIYYWTWIRQPPGKGLEWIGYIFYNGDTNYNPSLKSRVTMSIDTSKNEFSLRLTSVTAADTAVYFCARGTEDLGYCSSGSCPNHWGQGTLVTVSS VL: DIVMTQSPSSLSASIGDRVTITCRPSQNIRSFLNWFQHKPGKAPKLLIYAASNLQSGVPSRFSGSGSGTEFTLTIRSLQPEDFATYYCQQSYNTPPTFGQGTKVEIK", "values": [{"measurement": "binding result", "result": "binds"}]}
